According to paper PMC3280255:

Target: FUD, a 56-residue recombinant polypeptide based on the Functional Upstream Domain of the F1 adhesin of Streptococcus pyogenes (Streptococcus pyogenes)
Test: ELISA; competitive enzyme-linked assay: high binding plates coated overnight at 4°C with 10 µg/mL FN; 0.3 nM biotinylated FUD with increasing concentrations of soluble 70K proteins; binding relative to no competitor

Row | Substance | fold decrease in ability to compete, against wildtype 70K [fold]
1 | 70K I480/572A (Ile-to-Ala mutations in the IGD motifs of 7FNI and 9FNI) (domain or fragment) | 2
2 | 70K I150/242A (Ile-to-Ala mutations in the IGD motifs of 3FNI and 5FNI) (domain or fragment) | 2
